Measurements as given in publication PMC10397247.
One block for each binder: values may come before it.

What was measured:
[1] = target: T1, P4SHb; assay: two-hybrid library CCNG1;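 note: natural log of median RNA to DNA barcode read ratio; higher means stronger binding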
T1 chain: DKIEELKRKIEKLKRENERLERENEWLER

[2] = target: T2, P7SHb; assay: two-hybrid library CCNG1;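 note: natural log of median RNA to DNA barcode read ratio; higher means stronger binding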
T2 chain: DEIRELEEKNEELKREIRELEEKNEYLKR

[3] = target: T3, P8SHb; assay: two-hybrid library CCNG1;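 note: natural log of median RNA to DNA barcode read ratio; higher means stronger binding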
T3 chain: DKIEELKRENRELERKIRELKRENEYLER

[4] = target: T4, P5SHb; assay: two-hybrid library CCNG1;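 note: natural log of median RNA to DNA barcode read ratio; higher means stronger binding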
T4 chain: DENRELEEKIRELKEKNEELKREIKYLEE

[5] = target: T5, P6SHb; assay: two-hybrid library CCNG1;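 note: natural log of median RNA to DNA barcode read ratio; higher means stronger binding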
T5 chain: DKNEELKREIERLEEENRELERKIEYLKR

[6] = target: T6, P3SHb; assay: two-hybrid library CCNG1;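 note: natural log of median RNA to DNA barcode read ratio; higher means stronger binding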
T6 chain: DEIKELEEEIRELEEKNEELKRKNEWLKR

[7] = target: T7, P9SHb; assay: two-hybrid library CCNG1
T7 chain: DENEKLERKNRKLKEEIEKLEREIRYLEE

[8] = target: T8, P2SHb; assay: two-hybrid library CCNG1
T8 chain: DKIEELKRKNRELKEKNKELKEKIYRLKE

[9] = target: T9, 4H1899-bH; assay: two-hybrid library CCNG1
T9 chain: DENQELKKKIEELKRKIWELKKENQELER

[10] = target: T10, 4H3298-bH; assay: two-hybrid library CCNG1
T10 chain: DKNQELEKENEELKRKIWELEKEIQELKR

[11] = target: T11, 4H3462-bH; assay: two-hybrid library CCNG1
T11 chain: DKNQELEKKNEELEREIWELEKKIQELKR

[12] = target: T12, 4H3162-bH; assay: two-hybrid library CCNG1
T12 chain: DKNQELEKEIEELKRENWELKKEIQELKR

[13] = target: T13, 4H1449-bH; assay: two-hybrid library CCNG1
T13 chain: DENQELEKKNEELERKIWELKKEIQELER

[14] = target: T14, 4H570-bH; assay: two-hybrid library CCNG1
T14 chain: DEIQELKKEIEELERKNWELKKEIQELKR

[15] = target: T15, 4H1373-bH; assay: two-hybrid library CCNG1
T15 chain: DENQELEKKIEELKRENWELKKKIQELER

[16] = target: T16, 4H3843-bH; assay: two-hybrid library CCNG1
T16 chain: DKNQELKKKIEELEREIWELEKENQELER

[17] = target: T17, 4H850-bH; assay: two-hybrid library CCNG1
T17 chain: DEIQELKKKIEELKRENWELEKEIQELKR

[18] = target: T18, 4H1544-bH; assay: two-hybrid library CCNG1
T18 chain: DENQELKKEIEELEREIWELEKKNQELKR

[19] = target: T19, 4H3613-bH; assay: two-hybrid library CCNG1
T19 chain: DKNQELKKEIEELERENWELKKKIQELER

[20] = target: T20, 4H626-bH; assay: two-hybrid library CCNG1
T20 chain: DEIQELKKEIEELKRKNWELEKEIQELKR

[21] = target: T21, 4H591-bH; assay: two-hybrid library CCNG1
T21 chain: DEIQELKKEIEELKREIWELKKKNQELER

[22] = target: T22, O8; assay: two-hybrid library CCNG1
T22 chain: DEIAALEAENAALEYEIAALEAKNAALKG

[23] = target: T23, 4H1710-bH; assay: two-hybrid library CCNG1
T23 chain: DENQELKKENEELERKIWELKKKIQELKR

[24] = target: T24, 4H3628-bH; assay: two-hybrid library CCNG1
T24 chain: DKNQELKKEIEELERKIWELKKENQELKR

[25] = target: T25, 4H730-bA; assay: two-hybrid library CCNG1
T25 chain: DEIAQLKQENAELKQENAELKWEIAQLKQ

[26] = target: T26, 4H3277-bH; assay: two-hybrid library CCNG1
T26 chain: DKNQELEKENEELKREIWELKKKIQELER

[27] = target: T27, 4H3497-bH; assay: two-hybrid library CCNG1
T27 chain: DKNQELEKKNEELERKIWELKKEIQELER

[28] = target: T28, 4H1985-bH; assay: two-hybrid library CCNG1
T28 chain: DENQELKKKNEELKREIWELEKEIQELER

[29] = target: T29, 4H3817-bH; assay: two-hybrid library CCNG1
T29 chain: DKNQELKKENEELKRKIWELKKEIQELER

[30] = target: T30, 4H3974-bH; assay: two-hybrid library CCNG1
T30 chain: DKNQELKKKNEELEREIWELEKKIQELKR

[31] = target: T31, 4H906-bH; assay: two-hybrid library CCNG1
T31 chain: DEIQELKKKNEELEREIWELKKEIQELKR

[32] = target: T32, 4H3858-bH; assay: two-hybrid library CCNG1
T32 chain: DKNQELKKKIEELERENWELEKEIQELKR

[33] = target: T33, 4H3782-bH; assay: two-hybrid library CCNG1
T33 chain: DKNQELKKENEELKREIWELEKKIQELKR

[34] = target: T34, 4H3175-bH; assay: two-hybrid library CCNG1
T34 chain: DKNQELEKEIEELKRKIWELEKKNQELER

[35] = target: T35, 4H3926-bH; assay: two-hybrid library CCNG1
T35 chain: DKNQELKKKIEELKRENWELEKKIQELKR

[36] = target: T36, 4H932-bN; assay: two-hybrid library CCNG1
T36 chain: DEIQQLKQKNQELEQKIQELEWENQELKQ

[37] = target: T37, 4H697-AA; assay: two-hybrid library CCmax; details: mean of both orientations
T37 chain: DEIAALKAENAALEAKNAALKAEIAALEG

[38] = target: T38, 4H3718-AA; assay: two-hybrid library CCmax; details: mean of both orientations
T38 chain: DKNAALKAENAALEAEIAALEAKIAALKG

[39] = target: T39, 4H2648-AA; assay: two-hybrid library CCmax; details: mean of both orientations
T39 chain: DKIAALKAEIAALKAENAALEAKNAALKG

[40] = target: T40, 4H384-AA; assay: two-hybrid library CCmax; details: mean of both orientations
T40 chain: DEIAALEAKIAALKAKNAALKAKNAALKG

[41] = target: T41, 4H3588-AA; assay: two-hybrid library CCmax; details: mean of both orientations
T41 chain: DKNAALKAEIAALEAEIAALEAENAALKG

[42] = target: T42, 4H2907-AA; assay: two-hybrid library CCmax; details: mean of both orientations
T42 chain: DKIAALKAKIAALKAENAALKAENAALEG

[43] = target: T43, 4H1594-AA; assay: two-hybrid library CCmax; details: mean of both orientations
T43 chain: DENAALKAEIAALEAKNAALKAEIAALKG

[44] = target: T44, 4H2620-AA; assay: two-hybrid library CCmax; details: mean of both orientations
T44 chain: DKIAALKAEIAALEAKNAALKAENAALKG

[45] = target: T45, 4H1629-AA; assay: two-hybrid library CCmax; details: mean of both orientations
T45 chain: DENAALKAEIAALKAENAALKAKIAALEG

[46] = target: T46, 4H1388-AA; assay: two-hybrid library CCmax
T46 chain: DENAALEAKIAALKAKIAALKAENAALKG

[47] = target: T47, 4H3697-AA; assay: two-hybrid library CCmax; details: mean of both orientations
T47 chain: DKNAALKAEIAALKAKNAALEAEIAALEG

[48] = target: T48, 4H982-AA; assay: two-hybrid library CCmax; details: mean of both orientations
T48 chain: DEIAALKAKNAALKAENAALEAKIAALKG

[49] = target: T49, 4H3631-AA; assay: two-hybrid library CCmax; details: mean of both orientations
T49 chain: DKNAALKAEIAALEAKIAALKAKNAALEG

[50] = target: T50, 4H32-AA; assay: two-hybrid library CCmax; details: mean of both orientations
T50 chain: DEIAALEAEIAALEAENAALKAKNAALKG

[51] = target: T51, 4H3413-AA; assay: two-hybrid library CCmax; details: mean of both orientations
T51 chain: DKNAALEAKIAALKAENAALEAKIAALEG

[52] = target: T52, 4H340-AA; assay: two-hybrid library CCmax; details: mean of both orientations
T52 chain: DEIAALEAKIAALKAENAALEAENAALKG

[53] = target: T53, 4H2611-AA; assay: two-hybrid library CCmax; details: mean of both orientations
T53 chain: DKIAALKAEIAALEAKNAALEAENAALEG

[54] = target: T54, 4H1401-AA; assay: two-hybrid library CCmax; details: mean of both orientations
T54 chain: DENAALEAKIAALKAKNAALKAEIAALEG

[55] = target: T55, 4H2553-AA; assay: two-hybrid library CCmax; details: mean of both orientations
T55 chain: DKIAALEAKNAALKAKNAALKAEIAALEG

[56] = target: T56, 4H3606-AA; assay: two-hybrid library CCmax; details: mean of both orientations
T56 chain: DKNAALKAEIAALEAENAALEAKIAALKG

[57] = target: T57, 4H1845-AA; assay: two-hybrid library CCmax; details: mean of both orientations
T57 chain: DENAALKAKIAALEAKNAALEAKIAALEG

[58] = target: T58, 4H3865-AA; assay: two-hybrid library CCmax; details: mean of both orientations
T58 chain: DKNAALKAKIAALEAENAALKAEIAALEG

[59] = target: T59, 4H3133-AA; assay: two-hybrid library CCmax; details: mean of both orientations
T59 chain: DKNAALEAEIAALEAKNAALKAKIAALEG

[60] = target: T60, 4H3162-AA; assay: two-hybrid library CCmax; details: mean of both orientations
T60 chain: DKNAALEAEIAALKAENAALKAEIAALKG

[61] = target: T61, 4H3378-AA; assay: two-hybrid library CCmax; details: mean of both orientations
T61 chain: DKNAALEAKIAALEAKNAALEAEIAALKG

[62] = target: T62, 4H1874-AA; assay: two-hybrid library CCmax; details: mean of both orientations
T62 chain: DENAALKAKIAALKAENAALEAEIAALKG

[63] = target: T63, 4H3056-AA; assay: two-hybrid library CCmax; details: mean of both orientations
T63 chain: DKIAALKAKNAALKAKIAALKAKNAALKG

[64] = target: T64, 4H1513-AA; assay: two-hybrid library CCmax; details: mean of both orientations
T64 chain: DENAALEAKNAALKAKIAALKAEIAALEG

[65] = target: T65, 4H2198-AA; assay: two-hybrid library CCmax; details: mean of both orientations
T65 chain: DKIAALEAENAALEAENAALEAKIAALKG

interaction score [1]: 0.291
interaction score [2]: 0.49
interaction score [3]: -0.265
interaction score [4]: 0.588
interaction score [5]: 0.195
interaction score [6]: -0.091
interaction score [7]: -1.55
interaction score [8]: -0.669
Binder: DKIEELKRKNRELKEKNKELKEKIYRLKE [P2SHb]

interaction score [9]: -2
interaction score [10]: 0.0783
interaction score [11]: -0.048
interaction score [12]: 0.645
interaction score [13]: -1.04
interaction score [14]: 0.082
interaction score [15]: 0.778
interaction score [16]: -0.0729
interaction score [17]: -0.156
interaction score [18]: -0.374
interaction score [19]: 0.423
interaction score [20]: -0.984
interaction score [21]: -0.84
interaction score [22]: -0.719
interaction score [23]: -2.29
interaction score [24]: -1.36
interaction score [25]: -0.488
interaction score [26]: -0.681
interaction score [27]: -0.763
interaction score [28]: 0.5
interaction score [29]: -0.502
interaction score [30]: 0.369
interaction score [31]: -0.627
interaction score [32]: 0.654
interaction score [33]: -0.345
interaction score [34]: 0.281
interaction score [35]: 1.67
interaction score [36]: 0.58
Binder: DENQELEKKIEELKRENWELKKKIQELER [4H1373-bH]

interaction score [37]: -1.54
interaction score [38]: -0.0337
interaction score [39]: -0.194
interaction score [40]: -0.356
interaction score [41]: 2.13
interaction score [42]: -0.775
interaction score [43]: -1.66
interaction score [44]: -0.0212
interaction score [45]: -1.24
interaction score [46]: -0.698
interaction score [47]: -1.77
interaction score [48]: -2.08
interaction score [49]: 0.242
interaction score [50]: 2.52
interaction score [51]: -1.7
interaction score [52]: -0.251
interaction score [53]: -0.829
interaction score [54]: -2
interaction score [55]: -1.78
interaction score [56]: 0.583
interaction score [57]: -1.71
interaction score [58]: -1.23
interaction score [59]: -1.57
interaction score [60]: -1.45
interaction score [61]: -1.68
interaction score [62]: -1.59
interaction score [63]: -1.68
interaction score [64]: -0.0302
interaction score [65]: -1.08
Binder: DENAALEAKIAALKAKIAALKAENAALKG [4H1388-AA]
